From patent US20240368253A1 (BIO TECHNE, published 2024) come the findings set out here.

Assay [1] concerns the target T1, alphaVBeta5 (αVβ5) integrin heterodimer (UniProt P06756 31-992; P18084 24-719).
T1 construct: Heterodimer used in ELISA; source and construct not described; also called aVB5
Briefly: ELISA.

Assay [2] concerns the target T1, alphaVBeta5 (αVβ5) integrin heterodimer. Description: ELISA; printed as ED50 (median effective dose).
Assay [3] has the same target. Description: ELISA, average of 5 experiments normalized to VTN-FL.

Bounds are passed on as bounds.

T1 sequence (P06756 31-992, chain 1 of 2): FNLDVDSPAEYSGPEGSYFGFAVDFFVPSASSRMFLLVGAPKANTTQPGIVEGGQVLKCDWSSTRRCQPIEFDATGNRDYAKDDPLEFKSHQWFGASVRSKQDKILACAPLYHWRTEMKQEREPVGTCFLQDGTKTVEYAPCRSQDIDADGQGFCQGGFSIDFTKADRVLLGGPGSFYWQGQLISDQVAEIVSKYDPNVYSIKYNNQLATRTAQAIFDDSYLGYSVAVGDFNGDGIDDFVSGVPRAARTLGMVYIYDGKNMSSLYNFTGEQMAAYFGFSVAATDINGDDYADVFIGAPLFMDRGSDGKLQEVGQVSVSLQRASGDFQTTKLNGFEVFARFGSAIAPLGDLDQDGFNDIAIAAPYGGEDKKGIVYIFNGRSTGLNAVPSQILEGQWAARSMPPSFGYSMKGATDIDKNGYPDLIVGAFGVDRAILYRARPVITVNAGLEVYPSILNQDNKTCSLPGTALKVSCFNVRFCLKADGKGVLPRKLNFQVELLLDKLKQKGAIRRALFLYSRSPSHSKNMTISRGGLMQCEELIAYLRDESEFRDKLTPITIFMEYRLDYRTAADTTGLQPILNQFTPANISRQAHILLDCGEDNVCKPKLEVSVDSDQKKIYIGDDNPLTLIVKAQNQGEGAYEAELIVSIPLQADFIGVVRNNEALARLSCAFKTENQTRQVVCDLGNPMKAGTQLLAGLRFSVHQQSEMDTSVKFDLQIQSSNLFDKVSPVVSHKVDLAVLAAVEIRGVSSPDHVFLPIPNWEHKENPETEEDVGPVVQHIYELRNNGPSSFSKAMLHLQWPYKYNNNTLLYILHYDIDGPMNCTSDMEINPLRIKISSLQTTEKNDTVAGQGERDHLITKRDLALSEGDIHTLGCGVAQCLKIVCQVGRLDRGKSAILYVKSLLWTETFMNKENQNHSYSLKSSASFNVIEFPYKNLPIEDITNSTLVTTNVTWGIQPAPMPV
T1 sequence (P18084 24-719, chain 2 of 2): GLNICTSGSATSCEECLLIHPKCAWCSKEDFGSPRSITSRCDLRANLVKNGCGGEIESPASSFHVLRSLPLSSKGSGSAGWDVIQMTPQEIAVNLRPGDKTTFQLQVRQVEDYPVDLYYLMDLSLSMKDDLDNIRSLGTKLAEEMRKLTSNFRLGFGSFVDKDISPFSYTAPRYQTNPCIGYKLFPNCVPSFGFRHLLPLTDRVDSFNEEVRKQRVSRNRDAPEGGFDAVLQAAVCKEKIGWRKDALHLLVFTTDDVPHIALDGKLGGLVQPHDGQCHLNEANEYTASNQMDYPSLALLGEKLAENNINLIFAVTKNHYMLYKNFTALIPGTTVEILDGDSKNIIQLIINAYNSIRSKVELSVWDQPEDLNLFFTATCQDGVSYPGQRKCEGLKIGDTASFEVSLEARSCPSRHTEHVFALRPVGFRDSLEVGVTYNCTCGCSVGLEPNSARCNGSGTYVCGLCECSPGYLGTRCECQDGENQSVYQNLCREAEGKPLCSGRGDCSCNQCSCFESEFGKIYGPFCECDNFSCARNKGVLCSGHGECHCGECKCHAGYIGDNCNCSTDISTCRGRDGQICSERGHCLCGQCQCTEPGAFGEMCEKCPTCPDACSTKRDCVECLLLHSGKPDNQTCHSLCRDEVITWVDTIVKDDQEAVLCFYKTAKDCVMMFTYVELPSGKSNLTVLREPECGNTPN

B1: VTN62-292,D80Y (ligand)
chain: MVTRGDVFTMPEDEYTVYDYGEEKNNATVHEQVGGPSLTSDLQAQSKGNPEQTPVLKPEEEAPAPEVGASKPEGIDSRPETLHPGRPQPPAEEELCSGKPFDAFTDLKNGSLFAFRGQYCYELDEKAVRPGYPKLIRDVWGIEGPIDAAFTRINCQGKTYLFKGSQYWRFEDGVLDPDYPRNISDGFDGIPDNVDAALALPAHSYSGRERVYFFKGKQYWEYQFQHQPSQEEHHHHHH
notes: also called D80Y mutant
With B1, the “fold increase in binding affinity” value in assay [1] was roughly 2 fold.

B2: VTN62-292 T63G, V67N, F68P (ligand)
chain: VGRGDNPTMPEDEYTVYDDGEEKNNATVHEQVGGPSLTSDLQAQSKGNPEQTPVLKPEEEAPAPEVGASKPEGIDSRPETLHPGRPQPPAEEELCSGKPFDAFTDLKNGSLFAFRGQYCYELDEKAVRPGYPKLIRDVWGIEGPIDAAFTRINCQGKTYLFKGSQYWRFEDGVLDPDYPRNISDGFDGIPDNVDAALALPAHSYSGRERVYFFKGKQYWEYQFQHQPSQEEHHHHHH
notes: also called VN-3
For B2, the EC50 in assay [2] turned out to be 0.523 µg/mL. Besides, the “fold increase in ED50” value in assay [3] is greater than 7 fold.
